What was measured:
Experiment in all cases: SPR
Settings in all cases: not given in the material (no Methods text)
[1] = target: T1, EfPiwi (Ephydatia fluviatilis) (UniProt D5MRY8)
T1 sequence: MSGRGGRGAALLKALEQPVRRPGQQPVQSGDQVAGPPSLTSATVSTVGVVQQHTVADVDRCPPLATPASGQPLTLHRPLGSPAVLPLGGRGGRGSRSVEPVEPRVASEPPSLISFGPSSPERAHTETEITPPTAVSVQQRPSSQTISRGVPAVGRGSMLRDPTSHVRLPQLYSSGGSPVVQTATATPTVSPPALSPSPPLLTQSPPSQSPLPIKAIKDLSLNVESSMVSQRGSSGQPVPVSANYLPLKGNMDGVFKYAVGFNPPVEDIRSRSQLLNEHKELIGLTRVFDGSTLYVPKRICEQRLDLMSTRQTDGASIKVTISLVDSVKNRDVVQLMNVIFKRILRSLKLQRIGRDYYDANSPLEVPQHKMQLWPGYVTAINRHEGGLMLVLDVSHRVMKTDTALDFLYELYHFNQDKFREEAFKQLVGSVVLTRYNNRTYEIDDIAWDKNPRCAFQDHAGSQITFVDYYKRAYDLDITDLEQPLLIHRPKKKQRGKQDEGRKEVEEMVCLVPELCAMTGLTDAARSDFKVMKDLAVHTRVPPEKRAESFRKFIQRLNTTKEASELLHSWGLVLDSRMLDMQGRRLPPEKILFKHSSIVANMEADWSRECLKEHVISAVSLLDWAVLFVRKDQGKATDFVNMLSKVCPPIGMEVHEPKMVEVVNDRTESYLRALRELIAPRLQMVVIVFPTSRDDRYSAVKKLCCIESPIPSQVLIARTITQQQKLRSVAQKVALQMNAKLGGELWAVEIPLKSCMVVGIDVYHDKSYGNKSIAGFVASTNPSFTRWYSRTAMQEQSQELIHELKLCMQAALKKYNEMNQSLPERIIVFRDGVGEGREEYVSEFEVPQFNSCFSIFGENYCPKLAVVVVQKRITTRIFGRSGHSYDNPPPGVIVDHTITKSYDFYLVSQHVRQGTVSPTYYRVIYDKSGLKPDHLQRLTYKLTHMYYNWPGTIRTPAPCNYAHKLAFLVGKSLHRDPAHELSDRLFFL

HILI (PIWIL2) (human) = HILI (PIWIL2) (human) (UniProt Q8TC59)
MILI (PIWIL2) (mouse) = MILI (PIWIL2) (mouse) (UniProt Q8CDG1)
MILI (PIWIL2) (mouse), sequence (Q8CDG1 whole entry): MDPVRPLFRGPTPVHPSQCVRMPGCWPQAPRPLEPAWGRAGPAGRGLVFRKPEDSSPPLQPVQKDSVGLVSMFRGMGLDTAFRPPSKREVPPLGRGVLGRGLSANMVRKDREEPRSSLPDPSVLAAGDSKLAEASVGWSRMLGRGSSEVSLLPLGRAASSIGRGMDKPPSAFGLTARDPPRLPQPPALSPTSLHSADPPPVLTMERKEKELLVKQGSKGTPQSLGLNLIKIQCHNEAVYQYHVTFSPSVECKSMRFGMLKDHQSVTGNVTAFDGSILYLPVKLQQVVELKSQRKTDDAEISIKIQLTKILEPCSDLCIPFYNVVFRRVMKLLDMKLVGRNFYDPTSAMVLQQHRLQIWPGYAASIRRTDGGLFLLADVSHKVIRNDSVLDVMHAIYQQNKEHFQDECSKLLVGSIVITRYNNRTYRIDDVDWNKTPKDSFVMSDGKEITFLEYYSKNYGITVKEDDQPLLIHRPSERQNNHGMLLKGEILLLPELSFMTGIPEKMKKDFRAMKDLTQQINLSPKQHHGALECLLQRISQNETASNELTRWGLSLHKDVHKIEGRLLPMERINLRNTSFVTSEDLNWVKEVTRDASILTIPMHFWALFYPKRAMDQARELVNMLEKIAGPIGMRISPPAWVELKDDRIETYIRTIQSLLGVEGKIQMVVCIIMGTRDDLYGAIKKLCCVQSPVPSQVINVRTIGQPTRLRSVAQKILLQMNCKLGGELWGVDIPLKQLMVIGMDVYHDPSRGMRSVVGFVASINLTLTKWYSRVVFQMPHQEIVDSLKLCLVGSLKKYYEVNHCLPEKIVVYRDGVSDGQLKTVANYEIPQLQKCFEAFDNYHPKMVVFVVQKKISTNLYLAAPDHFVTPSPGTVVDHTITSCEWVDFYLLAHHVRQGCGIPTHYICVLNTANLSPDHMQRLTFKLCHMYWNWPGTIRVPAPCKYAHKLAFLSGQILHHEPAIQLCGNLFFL

HILI (PIWIL2) (human), sequence (Q8TC59 whole entry): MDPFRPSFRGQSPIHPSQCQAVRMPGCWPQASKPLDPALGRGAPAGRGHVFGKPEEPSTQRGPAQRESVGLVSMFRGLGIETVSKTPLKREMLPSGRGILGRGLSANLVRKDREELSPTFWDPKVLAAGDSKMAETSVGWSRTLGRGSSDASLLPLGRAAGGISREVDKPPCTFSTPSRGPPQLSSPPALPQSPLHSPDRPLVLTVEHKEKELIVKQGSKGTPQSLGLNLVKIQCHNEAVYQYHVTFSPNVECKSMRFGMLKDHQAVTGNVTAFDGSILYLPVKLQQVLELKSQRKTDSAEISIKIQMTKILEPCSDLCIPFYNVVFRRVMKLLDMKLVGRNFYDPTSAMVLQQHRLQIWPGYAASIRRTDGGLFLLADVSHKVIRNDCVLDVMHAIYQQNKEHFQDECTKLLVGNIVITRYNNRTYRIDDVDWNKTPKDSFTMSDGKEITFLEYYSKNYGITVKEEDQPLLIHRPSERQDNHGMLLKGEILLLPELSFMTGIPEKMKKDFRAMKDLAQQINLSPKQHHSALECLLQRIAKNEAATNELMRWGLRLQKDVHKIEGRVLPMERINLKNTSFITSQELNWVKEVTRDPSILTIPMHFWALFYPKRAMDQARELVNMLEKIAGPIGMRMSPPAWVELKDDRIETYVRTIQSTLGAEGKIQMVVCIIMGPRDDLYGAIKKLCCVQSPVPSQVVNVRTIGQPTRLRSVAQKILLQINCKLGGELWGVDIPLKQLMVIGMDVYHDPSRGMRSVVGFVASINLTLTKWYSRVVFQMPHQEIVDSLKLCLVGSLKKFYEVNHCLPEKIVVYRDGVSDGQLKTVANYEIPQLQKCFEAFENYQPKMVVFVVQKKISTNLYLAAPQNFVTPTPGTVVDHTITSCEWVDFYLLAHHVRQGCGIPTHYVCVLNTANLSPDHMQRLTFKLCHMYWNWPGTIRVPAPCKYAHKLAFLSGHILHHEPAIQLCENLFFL

piRNA guide + target with g3-g4 dinucleotide mismatch
binding signal (fold higher KD than MILI or HILI) [1]: 20

piRNA guide + seed-complementary (g2-g8) target
binding signal (fold higher affinity than EfPiwi) (HILI (PIWIL2) (human)): 6
binding signal (fold higher affinity than EfPiwi) (MILI (PIWIL2) (mouse)): 6
